Experimental data published in the DeepSol protein solubility set.

test: soluble on expression in E. coli; label from the status in PepcDB or PDB records

Soluble on expression in E. coli, not soluble:
MRLCHSIILFNSLISISICSKADDPALLVASEFKEHFNVEEKQLETVEELLIKMKKLAHSRSFKGREFGHDAVEDSKKEVAISTQQGTINKKVSPFLFEGDIFLSRRQAVDILKALSKDKTKRLRRSFVSDKTATWKTMPIKYRFHESIDFYTISQIIAAIRFWEDSTCITFENVSDSPDGDYIEFFSGQGCYSMIGRNGGRQGISIGESCVKASFFVMGVIEHEIGHALGLWHEQSRPDALGYVTIERDFILPSYISDFLQRDDEIDTLGIPYDLGSVMHYGSTAFSVDQKSKTVVTRDSLYQQTIGQREKLSFYDVATINTAYCKDECKSEKTKCENGGYMRPSKCSECLCPDGLGGEKCEKNEDSKNAECGGIIKLTEEWKEIESPNYPDPGYEADQKCSWLLKAEKGKRVEIEFIEDFSFLCTSTCVDFVELKISDDLRNTGFRFCCYDKPEISFVSQTDTAIIIFRSQLSTDIGFKIQAKSNELIIKTFKNSQKTKMQILFPKLSLKNNSADAEPRTTIAPTIITTTLAPITVDAPNVWADWGEWSMCSRTCGGCGIRSRVRSCRSKKCEGRRQEFGTCNLKACPVDKHCAKLLSNNRLCNGKVCTKNDIAISSCDAPQCCPPFINVDGVCQSDQENQHDELWLSI
MEVHDKIRTLREVNQWTQEEMAEKLEMSVNGYSKIERGKSGINLDKLRQIAQIFNIDVVELLAEQNRSFFFSIGDNTNNHHNIIGSDEMLVFENEKLRSLLDAKDELIRQKDSEIAVLKKLVILLEEKK
GPGSMNCFGVRNWWRNNLPELQLLNPFCSFTIQELSFGEPHMYINYTPTDQRMIRLAGATEDECEDIMEACITYGMNHAIIERPRTDDGGDLINQPAITSFGYTESFMSKLEVSPPADIGQRTPEGVDDPGQKPRVYPRNVGFKIMP
MSLETYIHEVVAPKLVGRDPLEIDRISKDLTGYLGFRSTGAEMRGNSAVDIGLWDLFGKATNLPIAQLLGGFSRREIRTYNTCAGNTYMRDAKGQQTANYGIGGPRRDYDDLNGFLERADELAEDLLSEGITAMKIWPFDIAAEKSGGQYISGPDLRKALEPFEKIRKRVGDRIDIMVEFHSMWQLTPAIQIARALEPYATFWHEDPIKMDSLSSLKRYAAASRAPLCASETLATRWAFRDLMETDAAGVVMLDLSWCGGISEAKKISTMAEAWHLPVAPHDCTGPVVLAASTHLSLNAPNALVQESVRAYYKTWYADLTTQLPTVTNGMITIPPGAGHGVDLAPDLDRKFEVSRRSSQIEDEGHHHHHH
MGHHHHHHSHATWHSALRGDAGLDSCRHVDSKCSGLHSSYRNLGTRQCPFSFLAEVMGKEPHFHSCLQVSHEFALNFNPSNPYCAGIQGIVDAYRQALPQVRLYGPTNFAPIINHVARFAQYFMLLLLTDGAVTDVEATREAVVRASNLPMSVIIVGVGGADFEAMEQLDADGGPLHTRSGQAAARDIVQFVPYRRFQNAPREALAQTVLAEVPTQLVSYFRAQGWAPLKPLPPSAKDPAQAPQA
MGSDKIHHHHHHMAKGNKIPLTFHTYQDAATGTEVVRLTPPDVICHRNYFYQKCFFNDGSKLLFGAAFDGPWNYYLLDLKEQNATQLTEGKGDNTFGGFLSPNDDALYYVKNTRNLMRVDLTTLEEKTIYQVPDDWVGYGTWVANSDCTKMVGIEIKKEDWKPLTDWKKFQEFYFTNPCCRLIRVDLVTGEAETILQENQWLGHPIYRPGDDNTVAFCHEGPHDLVDARMWFINEDGTNMRKVKEHAEGESCTHEFWVPDGSAMIYVSYLKDDTNRYIRSIDPVTLEDRQLRVMPPCSHLMSNYDGTLLVGDGSDAPVDVQDDGGYKIENDPFLYVFNLKTGKEHRIAQHNTSWEVLEGDRQVTHPHPSFTPDNKQVLFTSDVDGKPALYLAKVPDSVWN
MGHHHHHHSHMSFVECPYHSPAERLVAEADEGGPSAITGMGLCFRCLLFSFSGRSGVEGGRVDLNVFGSLGLQPWIGSSRCWGGPCSSALRCGWFSSWPPPSKSAIPIGGGSRGAGRVSRWPPPHWLEAWRVSPRPL
MGSDKIHHHHHHMAAVALDQYLASVLKSSASDKNEIKLEAGNPDFDLFTIYLENHNTGIHRYRMDVSTILYVAKGTVTIKSAEKVINMRTGNVLLLTEGCKYEVSGQNDDTVLAKLKFAPGFEYRKYFNDFSYKGNRENKIIEQISDSLENEHVLWLKNNQITSASQVMQHIIGGYLDDELFAKALIQAELTAMLIISIRTQRMATPTNLDKTKFEKKSLDNYIDNHFADISLADAAKYFGFNPNYFSNMVKAKTGKSFVDHVGERRMQEARELLAQPDISLKEIISRVGYSSKSFFYKKFNQYYNMTPAAMRKELFRQANINLR
MATLFIADLHLCVEEPAITAGFLRFLAGEARKADALYILGDLFEAWIGDDDPNPLHRQMAAAIKAVSDSGVPCYFIHGNRDFLLGKRFARESGMTLLPEEKVLELYGRRVLIMHGDTLCTDDAGYQAFRAKVHKPWLQMLFLALPLFVRKRIAARMRANSKEANSSKSLAIMDVNQNAVVSAMEKHQVQWLIHGHTHRPAVHELIANQQPAFRVVLGAWHTEGSMVKVTADDVELIHFPFLEHHHHHH
MGSDKIHHHHHHMDNYLAEQILKNLPFTPTQSQDSAIRSLAKYLFDREPYSVFLLRGYAGTGKTQLIASVVQTILEQGADCELLAPTGRAAKVLTTYTRHQAYTIHRQIYQATAAGIEEGGAYRIRRSSGRSTVFIVDESSMIGNESVEPTPFGSGSLLNDLLAYVNETDGCRLILAGDMAQLPPVGSVVSPALDAGVMETSYGLRIHECTLTEVVRQQKESAILSLATSLRRLLSNGISEKIKLNIRDSGDVSAISGTELIEALDASFRTVGMDETIIVSYSNKRALAYNLGIRSQVLYYEEELIRGDRLVVTRNNYRYCDRRDKTDFVANGEIVEILRLGKRYELYGFRFADATISLVEQGREIEARLLLDGLTAETAGLTHAQRQKLYDAVAEDYNSMASIPARRKAIKEDAFFSALEVKYAYAITCHKAQGGQWKHVYVDMGMLSYLPHDEQLCRWLYTAVTRASERLFLVNTPKDMLP
MGSDKIHHHHHHMYETFEKLPDGKKEQIIQVCIEEFIENGYQNASTNTIVKRLGISKGVLFLYFKNKKNLYLYLVEYIMEFFIQDYFEEYAGGPVININVFDNLGEYYKELMQKKPELFLFMLQAFVNTPAELKEEIDARHNQAHDSLFRHMNNEGFRPGIDIHLVDDLLHMVSYYVGQLITNDLKGKDLNTIIKDEINKNIVRYAELFAKYVDILKYGVYER
MDSPAWMFTKALSHRQKVTRLYKRCLREVDNWYGGNNLEVRFQKCIIRARFDANADEVDTRKSQILLADGCRQLWEKRHFKPFRFALDPGGSSYDRERESPDEIVDSDQWTLAEREQFPYYFNTREQRKKELLTHWAKIEKAWDEEIASIQTQLPAAAPTVSK

Soluble on expression in E. coli, soluble:
MAHHHHHHMGTLEAQTQGPGSMNAGLDQVDPIWHSIRAEAEEATRNDPVLGAFLYATILNQPSLEEAVMHRIAERLGHPDVSADILRQTFDTMLEANPEWSHVLRVDIQAVYDRDPAYSRFMDPVLYLKGFHAIQTHRLAHWLYKQGRKDFAYYLQSRSSSIFQTDIHPAARLGSGLFLDHATGLVVGETAVVEDNVSILHGVTLGGTGKSSGDRHPKIRQGVLIGAGAKILGNIQVGQCSKIAAGSVVLKSVPHNVTVAGVPARIIGETGCTEPSRVMDQMLGDGI
MSLAEPLTVSPELTANYAYFFDLDGTLAEIKPHPDQVVVPHKILQLLDRLAAHNAGALALISGRSMTELDALAKPFRFPLAGVHGAERRDISGKTHIVRLPEAVVREVEALLRSTLAALPGTELETKGMAFALHYRQAPEHEAALLALAQHVTQHWPQLALQPGKCVVEIKPKGTNKGEAIAAFMQEAPFTGRIPVFVGDDLTDEAGFGVVNHAGGISVKVGVGATQAAWRLESVPDVWRWLEQINYPQQEQQVMNNRRDGYESFSRSIEGHHHHHH
MNATPEKADDLIVVGKIFSVHGVRGEVKVYSFTDPIENLLDYPRWTLRHEGKVKQVELVSGRGSQKGLVVKLKGLDDRDEARLLSGYEICIPRSLLPNLAADEYYWYQLVGLKVINQDEQLFGKVDHLLETGANDVMVVKPCAGSLDDRERLLPYTEQCVLAIDLEAGVMRVEWDADFLEHHHHHH
MPKNDLLLRSLRGEPIGRFPVWLMRQAGRYMPEYRKIRNRVKNFLELCKNVDLATEISLLPLKILGVDAIIIFSDILVPLEPLGVKVEFVEGEGPKLSWSGKVSDLKKYDPSQNAYVYEIIKRVKEAQDEVPVIGFAGAPFTLLSYLIEGGASKDFKSTKLFMWENPKEYKRLMDILTETVLAYLKEQIKAGADVVQIFDSWVNNLSLEDYGEYVYPYVNYLISELKDFSDTPVIYFFRGSSSFIDLAVDYRADALSVDWSVDIPELFKIYDKGFQGNLEPAVLYASEEVIEEKTLGLLRRIPVKTRYVFNLGHGLAPDMELEKVKYLVDLVKSFPLT
SLKPINYVPHFLCRISGEEINSISEIEFIKTLECLELSEGILRKINSLSADLTKDLHDCISLYKEQSISRVLINLKRDIFNMRFNRVQKYKLENISGFNHDKLNLWLNLAQEYQSTLHLMRETFKMEIQEKRGKLKQLFSNSEYIKAIQVSNTQLYENLLEYLQDNQSHPPKKMRNIEQSLINYLSRMIFKPTPFSSFTGLNYGFFSQEDSSFEINTKESKGHTRINMVYLKKIERMLLNRISIKNKCYVSLNQTINEEENYMFFRRGKDGTSQAFTGEAFIKIKKSELLKELIQYFEGISSMNIVEVVSFLSEKTNYETEALYNYLFKLEKMGVLDFSLGVSEQSDNYTKDLIENLLGIKDSLVEKSVSHLVEIEKIQAIFSESNYQKRYVLLKNLQEHIKKIYSLFDLKLESNDLTSLLFEDVSYKNTKIILNENQWKTHLDDFNLIKNLMPLFDDNILEKLSMNIIFKDIYGNKGAIDLLEFYREFNKYDKNLLWKKIRKNDTYLYLKKLRTEFYDYLETQINMGLDTIFLNKSWLKKFINKFPDLLKSKENYSFYFQIAYDNQDNRILVLNKIGPGLGKHFSRYGNLFLNSEYKENNRFINSLIEQYKKYDQNGGVLTDLNAVLGLNLNMHPNLLNYEITYPGCNPSKGINQVALKDIEVLYDSNSDQLKLYSKQYRQNVKLLPLGFLFPALSPSLYKFLCGFSESNGIEYSFWNKFLNEHNNNFSLLPRIMLGSVALDRRTWKINAKEIQKEFSKDTFETFINFHKWVKENQLPEDIFLRVANTMDAFSENELLNQDLGSWIAEIKQTKHRKPQYVNFNNYFHIDALRKIIKDVNNTVTIQEVYPHPDDVYYQKNSKKCVEFLVEVF
MEAGGLPLELWRMILAYLHLPDLGRCSLVCRAWYELILSLDSTRWRQLCLGCTECRHPNWPNQPDVEPESWREAFKQHYLASKTWTKNALDLESSICFSLFRRRRERRTLSVGPGREFDSLGSALAMASLYDRIVLFPGVYEEQGEIILKVPVEIVGQGKLGEVALLASIDQHCSTTRLCNLVFTPAWFSPIMYKTTSGHVQFDNCNFENGHIQVHGPGTCQVKFCTFKNTHIFLHNVPLCVLENCEFVGSENNSVTVEGHPSADKNWAYKYLLGLIKSSPTFLPTEDSD
MKDFKLAKSKSHAIEETKPFSILLMGVDTGSEHRKSKWSGNSDSMILVTINPKTNKTTMTSLERDVLIKLSGPKNNGQTGVEAKLNAAYASGGAEMALMTVQDLLDINVDYFMQINMQGLVDLVNAVGGITVTNKFDFPISIAANEPEYKAVVEPGTHKINGEQALVYSRMRYDDPEGDYGRQKRQREVIQKVLKKILALNSISSYKKILSAVSNNMQTNIEISSKTIPNLLAYKDSLEHIKSYQLKGEDATLSDGGSYQILTKKHLLAVQNRIKKELDKKRSKTLKTSAILYEDYYGLEHHHHHH
MCQMPCQFSWPYTHYFTQTKNKEKILNKLIVFTGGPGAGKTSVIEQLKTQGFICAPETGRHVIQMQVANHGSALPWNDKQAFRDEMTKEEVSNYRSFNVRQGDVFFDRSIVDVYGYSKLEQLPISHELITHCQTLRYHSQVFIFPPWASIFSNDEERKQDFSEAVATYQQMVDAYHKFGYQLIEVPKMSVEDRVAFILGSVIELEHHHHHH
